Columns and labels:
[1] = molecular target: T1, recombinant human Tau monomer, 2N4R isoform (amino acids 2-441) (human, UniProt P10636-8 2-441); experiment: SPR; Normalized Rmax post-stress (2 weeks 40 C) / pre-stress
T1 construct: range 2-441; N-terminal His-tag removed with TEV protease; also called monomeric Tau
Method in brief: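 SPR read-out: Rmax divided by captured-IgG Ligand Level gives Normalized Rmax; post-stress (40° C., 2 weeks) over pre-stress (~4° C.) value is the Stability Index. Tau analyte at 0, 26.5, 265 nM, 180 s association, 300 s dissociation, multi-cycle kinetics, 1:1 model.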

[2] = molecular target: T1, recombinant human Tau monomer, 2N4R …; experiment: SPR, captured IgG, Tau monomer analyte, 1:1 model; fit-quality column: -
Method: Briefly, IgGs in 1 mL culuture were captured using tip columns that were custom packed with 20 μL MabSelect SuRe resin (Glygen Corp & GE Healthcare). After washing with 1×PBS pH 7.4, IgGs were eluted into 160 μL of 50 mM phosphoric acid pH 3 and neutralized with 12 μL of 20×PBS pH 11. MabSelect SuRe tip columns were stripped in 0.1 M NaOH and regenerated with 1×PBS pH 7.4 for consecutive use of up to 15 times. Purified antibodies in 96-well format were normalized to 0.1 mg/ml using a Hamilton Star liquid handling robot. The “pre-stress” samples were kept at approximately 4° C. and the “post-stress” samples were incubated at 40° C. for two weeks in a PCR machine. Functional stability of the variants was compared by running surface plasmon resonance kinetics experiments with the “pre-stress” and “post-stress” antibody preps. The antibodies were assessed using a human antibody capture CM5 Series S chip generated using the GE Biacore human IgG capture kit and a Biacore T200 instrument. Antibodies diluted to 2 μg/ml were immobilized using a 15 second injection time and 10 μl/min flow rate. Binding to Tau monomer at 0 nM, 26.5 nM and 265 nM, at 25° C., using a flow rate of 40 μl/min, was monitored for a 180 second association phase followed by a 300 second dissociation phase. Samples were run in 10 mM HEPES pH7.4, 150 mM NaCl, 0.05% Tween 20 (HBSP) using a multi-cycle kinetics format. Data was analyzed using BIAevaluation software, fitting a 1:1 binding model. The resulting affinity (KD) values are shown in FIG. 8A-D. A Stability Index was also calculated, using the rationale that affinity-compromised antibodies (due for example to deamidation of key residues) are expected to contribute equally to the IgG capture level (“Ligand Level”) but to contribute less to the measured Tau binding, and that this would be reflected in the experimentally derived value for Rmax. To account for variations in the amount of each antibody captured, Rmax was normalized for the antibody capture level (as measured by “Ligand Level”, Response Units immobilized during antibody capture). Thus Normalized Rmax is calculated as the experimental Rmax (units=RU) divided by the “Ligand Level” (Evaluation output representing the RU captured during the hIgG capture step, units=RU), and Stability Index is calculated here as Normalized Rmax (post-stress) divided by Normalized Rmax (pre-stress).

T1 sequence (P10636 other isoform, or with tags, fused parts or gaps limits assumed): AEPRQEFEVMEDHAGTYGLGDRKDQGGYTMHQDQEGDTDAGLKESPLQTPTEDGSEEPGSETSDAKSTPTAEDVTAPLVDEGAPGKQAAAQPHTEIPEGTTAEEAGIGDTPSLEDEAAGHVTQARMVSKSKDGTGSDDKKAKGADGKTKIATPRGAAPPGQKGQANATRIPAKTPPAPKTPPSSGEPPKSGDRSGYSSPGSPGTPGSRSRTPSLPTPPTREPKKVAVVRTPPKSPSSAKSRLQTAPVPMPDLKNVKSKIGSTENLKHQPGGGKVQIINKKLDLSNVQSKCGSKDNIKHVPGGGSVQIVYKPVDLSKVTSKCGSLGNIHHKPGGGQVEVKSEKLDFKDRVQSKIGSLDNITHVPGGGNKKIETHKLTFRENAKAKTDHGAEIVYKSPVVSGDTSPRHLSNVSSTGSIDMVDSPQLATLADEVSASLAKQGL

Row | Stability Index [1] [%] | Kd [2] [nM] | Binder
1 | 78 | 36.1 | hu37D3-H9.v5.4 (antibody, V domains shown) VH: EVQLVESGGGLVQPGGSLRLSCAASGLIFRSYGMSWVRQAPGKGLEWVATINSGGTYTYYPDSVKGRFTISRDNSKNTLYLQMNSLRAEDTAVYYCANSYSGAMDYWGQGTLVTVSS VL: EDVLTQTPLSLPVTPGQPASISCRSSQSIVHSQGNTYFEWYLQKPGQSPQLLIYKVSNRFSGVPDRFSGSGSGTDFTLKISRVEAEDVGVYYCFQGSLVPWTFGQGTKVEIK
2 | 83 | 48.1 | hu37D3-H9.v31.13 (antibody, V domains shown) VH: EVQLVESGGGLVQPGGSLRLSCAASGLIFRSYGMSWVRQAPGKGLEWVATINSGGTYTYYPDSVKGRFTISRDNSKNTLYLQMNSLRAEDTAVYYCANSYSGAMDYWGQGTLVTVSS VL: DDVLTQTPLSLPVTPGQPASISCRSSQSIVHSNANNYFEWYLQKPGQSPQLLIYKVSNRFSGVPDRFSGSGSGTDFTLKISRVEAEDVGVYYCFQGSLVPWTFGQGTKVEIK
3 | 261 | 5.5 | hu37D3-H9.v31.10 (antibody, V domains shown) VH: EVQLVESGGGLVQPGGSLRLSCAASGLIFRSYGMSWVRQAPGKGLEWVATINSGGTYTYYPDSVKGRFTISRDNSKNTLYLQMNSLRAEDTAVYYCANSYSGAMDYWGQGTLVTVSS VL: DDVLTQTPLSLPVTPGQPASISCRSSQSIVHSNANPYFEWYLQKPGQSPQLLIYKVSNRFSGVPDRFSGSGSGTDFTLKISRVEAEDVGVYYCFQGSLVPWTFGQGTKVEIK
4 | 364 | 1.1 | hu37D3.v28.E3 (antibody, V domains shown) VH: EVQLVESGGGLVQPGGSLRLSCAASGLIFRSYGMSWVRQAPGKGLEWVATINSGGTYTYYPDSVKGRFTISRDNSKNTLYLQMNSLRAEDTAVYYCANSYSGAMDYWGQGTLVTVSS VL: DDVLTQTPLSLPVTPGQPASISCRSSQSIVDSDGNTYFEWYLQKPGQSPQLLIYKVSNRFSGVPDRFSGSGSGTDFTLKISRVEAEDVGVYYCFQGSLVPWTFGQGTKVEIK
5 | 72 | 41.2 | hu37D3-H9.v31.1 (antibody, V domains shown) VH: EVQLVESGGGLVQPGGSLRLSCAASGLIFRSYGMSWVRQAPGKGLEWVATINSGGTYTYYPDSVKGRFTISRDNSKNTLYLQMNSLRAEDTAVYYCANSYSGAMDYWGQGTLVTVSS VL: DDVLTQTPLSLPVTPGQPASISCRSSQSIVHSNAGTYFEWYLQKPGQSPQLLIYKVSNRFSGVPDRFSGSGSGTDFTLKISRVEAEDVGVYYCFQGSLVPWTFGQGTKVEIK
6 | 607 | 4.1 | hu37D3.v28.B7 (antibody, V domains shown) VH: EVQLVESGGGLVQPGGSLRLSCAASGLIFRSYGMSWVRQAPGKGLEWVATINSGGTYTYYPDSVKGRFTISRDNSKNTLYLQMNSLRAEDTAVYYCANSYSGAMDYWGQGTLVTVSS VL: DDVLTQTPLSLPVTPGQPASISCRSSQSIVHSDGNTKFEWYLQKPGQSPQLLIYKVSNRFSGVPDRFSGSGSGTDFTLKISRVEAEDVGVYYCFQGSLVPWTFGQGTKVEIK
7 | 86 | 35.5 | hu37D3-H9.v31.14 (antibody, V domains shown) VH: EVQLVESGGGLVQPGGSLRLSCAASGLIFRSYGMSWVRQAPGKGLEWVATINSGGTYTYYPDSVKGRFTISRDNSKNTLYLQMNSLRAEDTAVYYCANSYSGAMDYWGQGTLVTVSS VL: DDVLTQTPLSLPVTPGQPASISCRSSQSIVHSNANRYFEWYLQKPGQSPQLLIYKVSNRFSGVPDRFSGSGSGTDFTLKISRVEAEDVGVYYCFQGSLVPWTFGQGTKVEIK
8 | 74 | 35.6 | hu37D3.v28.51 (antibody, V domains shown) VH: EVQLVESGGGLVQPGGSLRLSCAASGLIFRSYGMSWVRQAPGKGLEWVATINSGGTYTYYPDSVKGRFTISRDNSKNTLYLQMNSLRAEDTAVYYCANSYSGAMDYWGQGTLVTVSS VL: EDVLTQTPLSLPVTPGQPASISCRSSQSIVHSHGNTYFEWYLQKPGQSPQLLIYKVSNRFSGVPDRFSGSGSGTDFTLKISRVEAEDVGVYYCFQGSLVPWTFGQGTKVEIK
9 | 208 | 0.4 | hu37D3.v28.B3 (antibody, V domains shown) VH: EVQLVESGGGLVQPGGSLRLSCAASGLIFRSYGMSWVRQAPGKGLEWVATINSGGTYTYYPDSVKGRFTISRDNSKNTLYLQMNSLRAEDTAVYYCANSYSGAMDYWGQGTLVTVSS VL: DDVLTQTPLSLPVTPGQPASISCRSSQSIVHSQGNTWFEWYLQKPGQSPQLLIYKVSNRFSGVPDRFSGSGSGTDFTLKISRVEAEDVGVYYCFQGSLVPWTFGQGTKVEIK
10 | 99 | 41.6 | hu37D3-H9.v31.12 (antibody, V domains shown) VH: EVQLVESGGGLVQPGGSLRLSCAASGLIFRSYGMSWVRQAPGKGLEWVATINSGGTYTYYPDSVKGRFTISRDNSKNTLYLQMNSLRAEDTAVYYCANSYSGAMDYWGQGTLVTVSS VL: DDVLTQTPLSLPVTPGQPASISCRSSQSIVHSNANYYFEWYLQKPGQSPQLLIYKVSNRFSGVPDRFSGSGSGTDFTLKISRVEAEDVGVYYCFQGSLVPWTFGQGTKVEIK
11 | 75 | 64.5 | hu37D3-H9.v5.5 (antibody, V domains shown) VH: EVQLVESGGGLVQPGGSLRLSCAASGLIFRSYGMSWVRQAPGKGLEWVATINSGGTYTYYPDSVKGRFTISRDNSKNTLYLQMNSLRAEDTAVYYCANSYSGAMDYWGQGTLVTVSS VL: EDVLTQTPLSLPVTPGQPASISCRSSQSIVHSEGNTYFEWYLQKPGQSPQLLIYKVSNRFSGVPDRFSGSGSGTDFTLKISRVEAEDVGVYYCFQGSLVPWTFGQGTKVEIK
12 | 288 | 10.5 | hu37D3.v28.B4 (antibody, V domains shown) VH: EVQLVESGGGLVQPGGSLRLSCAASGLIFRSYGMSWVRQAPGKGLEWVATINSGGTYTYYPDSVKGRFTISRDNSKNTLYLQMNSLRAEDTAVYYCANSYSGAMDYWGQGTLVTVSS VL: DDVLTQTPLSLPVTPGQPASISCRSSQSIVHSQGNTHFEWYLQKPGQSPQLLIYKVSNRFSGVPDRFSGSGSGTDFTLKISRVEAEDVGVYYCFQGSLVPWTFGQGTKVEIK
13 | 533 | 0.8 | hu37D3-H9.v31.4 (antibody, V domains shown) VH: EVQLVESGGGLVQPGGSLRLSCAASGLIFRSYGMSWVRQAPGKGLEWVATINSGGTYTYYPDSVKGRFTISRDNSKNTLYLQMNSLRAEDTAVYYCANSYSGAMDYWGQGTLVTVSS VL: DDVLTQTPLSLPVTPGQPASISCRSSQSIVHSNAPTYFEWYLQKPGQSPQLLIYKVSNRFSGVPDRFSGSGSGTDFTLKISRVEAEDVGVYYCFQGSLVPWTFGQGTKVEIK
14 | 456 | 1.8 | hu37D3.v28.B8 (antibody, V domains shown) VH: EVQLVESGGGLVQPGGSLRLSCAASGLIFRSYGMSWVRQAPGKGLEWVATINSGGTYTYYPDSVKGRFTISRDNSKNTLYLQMNSLRAEDTAVYYCANSYSGAMDYWGQGTLVTVSS VL: DDVLTQTPLSLPVTPGQPASISCRSSQSIVHSEGNTRFEWYLQKPGQSPQLLIYKVSNRFSGVPDRFSGSGSGTDFTLKISRVEAEDVGVYYCFQGSLVPWTFGQGTKVEIK
15 | 126 | 22.7 | hu37D3-H9.v31.11 (antibody, V domains shown) VH: EVQLVESGGGLVQPGGSLRLSCAASGLIFRSYGMSWVRQAPGKGLEWVATINSGGTYTYYPDSVKGRFTISRDNSKNTLYLQMNSLRAEDTAVYYCANSYSGAMDYWGQGTLVTVSS VL: DDVLTQTPLSLPVTPGQPASISCRSSQSIVHSNANFYFEWYLQKPGQSPQLLIYKVSNRFSGVPDRFSGSGSGTDFTLKISRVEAEDVGVYYCFQGSLVPWTFGQGTKVEIK
16 | 67 | 36.6 | hu37D3-H9.v5.6 (antibody, V domains shown) VH: EVQLVESGGGLVQPGGSLRLSCAASGLIFRSYGMSWVRQAPGKGLEWVATINSGGTYTYYPDSVKGRFTISRDNSKNTLYLQMNSLRAEDTAVYYCANSYSGAMDYWGQGTLVTVSS VL: EDVLTQTPLSLPVTPGQPASISCRSSQSIVHSAGNTYFEWYLQKPGQSPQLLIYKVSNRFSGVPDRFSGSGSGTDFTLKISRVEAEDVGVYYCFQGSLVPWTFGQGTKVEIK
